Test [1] has as its target HAUSP TRAF domain (HAUSP^62-205) (human). As to the kind of experiment: ITC, titration against HAUSP TRAF domain, 20 °C.
Test [2] has the same target. As to the kind of experiment: competitive ITC: vIRF4^202-216 titrated into TRAF pre-titrated with p53^350-364 (competitor).
Test [3] has the same target. As to the kind of experiment: competitive ITC: vIRF4^202-216 titrated into TRAF pre-titrated with p53^355-369 (competitor).
For test [4] the target is unchanged. In words: competitive ITC: vIRF4^202-216 titrated into TRAF pre-titrated with MDM2^137-152 (competitor).
Test [5] shares this target. In words: ITC. On the technique in general: ITC needs no label: the signal is the heat of the interaction.

HAUSP TRAF domain (HAUSP^62-205) (human), sequence (chain, as listed by the source): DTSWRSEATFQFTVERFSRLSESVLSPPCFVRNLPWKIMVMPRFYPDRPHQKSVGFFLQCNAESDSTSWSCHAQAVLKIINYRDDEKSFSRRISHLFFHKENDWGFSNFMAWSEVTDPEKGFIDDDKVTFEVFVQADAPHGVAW

B1: vIRF4^202-216 peptide (vif1) (peptide)
peptide: SVWIPVNEGASTSGM
notes: Synthesized peptide (Peptron); also called vif1 peptide
In test [1], B1 came in with a TΔS of -10.6 kcal/mol, a ΔG of -8.6 kcal/mol and a ΔH of -19.2 kcal/mol. The molecule also registered a ΔHobs in test [2] of -19.1 kcal/mol. The molecule further yielded a ΔHobs in test [3] of -19.1 kcal/mol. Also, in test [4], the ΔHobs was -25.9 kcal/mol.

B2: vIRF4^153-256 (other)
chain: SDTREQSYEEAGAAAPAPPKAPSGLRGRPRKSNRYYNVGDITTEQKAACSVWIPVNEGASTSGMGSSGTRQVTQASSFTWRVPGDPPAPSTLTGPSDPHSSGAG
Take B2: in test [5], the “fold higher affinity (against vIRF4^153-216)” value worked out at 7 fold.

For the origin of these results see patent US20130330358A1 (UNIVERSITY OF SOUTHERN CALIFORNIA, published 2013).
